# B1: Twister Ribozyme (parent)
# chain: AACACUGCCAAUGCCGGUCCCAAGCCCGGAUAAAAGUGGAGGGGGCGG
# Variants of: B1
# Experiment: self-cleavage, relative activity (ratio to wild type); higher = more cleavage; co-transcriptional
row,Variant,self-cleavage
1,ACCACUGCCAAUGCCGGUCCCAAGCCCGGAUAAAAGUGGAGGGGGCGG,0.0941
2,ACCCCUGCCAAUGCCGGUCCCAAGCCCGGAUAAAAGUGGAGGGGGCGG,0.154
3,ACCGCUGCCAAUGCCGGUCCCAAGCCCGGAUAAAAGUGGAGGGGGCGG,0.0453
4,ACCUCUGCCAAUGCCGGUCCCAAGCCCGGAUAAAAGUGGAGGGGGCGG,0.0426
5,ACCACUGCCCAUGCCGGUCCCAAGCCCGGAUAAAAGUGGAGGGGGCGG,0.0739
6,ACCACUGCCUAUGCCGGUCCCAAGCCCGGAUAAAAGUGGAGGGGGCGG,0.0864
7,ACCACUGCCAGUGCCGGUCCCAAGCCCGGAUAAAAGUGGAGGGGGCGG,0.102
8,ACCACUGCCAAUGCCGGUCCCCAGCCCGGAUAAAAGUGGAGGGGGCGG,0.0812
9,ACCACUGCCAAUGCCGGUCCCGAGCCCGGAUAAAAGUGGAGGGGGCGG,0.0432
10,ACCACUGCCAAUGCCGGUCCCUAGCCCGGAUAAAAGUGGAGGGGGCGG,0.0564
11,ACCACUGCCAAUGCCGGUCCCACGCCCGGAUAAAAGUGGAGGGGGCGG,0.0233
12,ACCACUGCCAAUGCCGGUCCCAAGCCCGGCUAAAAGUGGAGGGGGCGG,0.0338
13,ACCACUGCCAAUGCCGGUCCCAAGCCCGGAUACAAGUGGAGGGGGCGG,0.0306
14,ACCACUGCCAAUGCCGGUCCCAAGCCCGGAUAGAAGUGGAGGGGGCGG,0.107
15,ACCACUGCCAAUGCCGGUCCCAAGCCCGGAUAUAAGUGGAGGGGGCGG,0.0693
16,ACCACUGCCAAUGCCGGUCCCAAGCCCGGAUAAGAGUGGAGGGGGCGG,0.0505
17,ACCACUGCCAAUGCCGGUCCCAAGCCCGGAUAAACGUGGAGGGGGCGG,0.064
18,ACCACUGCCAAUGCCGGUCCCAAGCCCGGAUAAAGGUGGAGGGGGCGG,0.0429
19,ACGACUGCCAAUGCCGGUCCCAAGCCCGGAUAAAAGUGGAGGGGGCGG,0.127
20,ACCAUUGCCAAUGCCGGUCCCAAGCCCGGAUAAAAGUGGAGGGGGCGG,0.0782
21,ACCACUGGCAAUGCCGGUCCCAAGCCCGGAUAAAAGUGGAGGGGGCGG,0.0519
22,ACCACUGCUAAUGCCGGUCCCAAGCCCGGAUAAAAGUGGAGGGGGCGG,0.0433

row,Variant,self-cleavage
1,ACCACUGCCAAUGUCGGUCCCAAGCCCGGAUAAAAGUGGAGGGGGCGG,0.0681
2,ACCACUGCCAAUGCUGGUCCCAAGCCCGGAUAAAAGUGGAGGGGGCGG,0.088
3,ACCACUGCCAAUGCCGGUACCAAGCCCGGAUAAAAGUGGAGGGGGCGG,0.0459
4,ACCACUGCCAAUGCCGGUGCCAAGCCCGGAUAAAAGUGGAGGGGGCGG,0.0832
5,ACCACUGCCAAUGCCGGUCGCAAGCCCGGAUAAAAGUGGAGGGGGCGG,0.0956
6,ACCACUGCCAAUGCCGGUCCGAAGCCCGGAUAAAAGUGGAGGGGGCGG,0.0366
7,ACCACUGCCAAUGCCGGUCCUAAGCCCGGAUAAAAGUGGAGGGGGCGG,0.0368
8,ACCACUGCCAAUGCCGGUCCCAAGACCGGAUAAAAGUGGAGGGGGCGG,0.0593
9,ACCACUGCCAAUGCCGGUCCCAAGCGCGGAUAAAAGUGGAGGGGGCGG,0.0867
10,ACCACUGCCAAUGCCGGUCCCAAGCCAGGAUAAAAGUGGAGGGGGCGG,0.0541
11,ACCACUGCCAAUGCCGGUCCCAAGCCCGGAUAAAAGUGGAGGGGGAGG,0.0436
12,ACCACUGCCAAUGCCGGUCCCAAGCCCGGAUAAAAGUGGAGGGGGGGG,0.0474
13,ACCACUGCCAAUGCCGGUCCCAAGCCCGGAUAAAAGUGGAGGGGGUGG,0.0993
14,ACCACUUCCAAUGCCGGUCCCAAGCCCGGAUAAAAGUGGAGGGGGCGG,0.0484
15,ACCACUGCCAAUCCCGGUCCCAAGCCCGGAUAAAAGUGGAGGGGGCGG,0.0312
16,ACCACUGCCAAUUCCGGUCCCAAGCCCGGAUAAAAGUGGAGGGGGCGG,0.0549
17,ACCACUGCCAAUGCCCGUCCCAAGCCCGGAUAAAAGUGGAGGGGGCGG,0.0398
18,ACCACUGCCAAUGCCUGUCCCAAGCCCGGAUAAAAGUGGAGGGGGCGG,0.0604
19,ACCACUGCCAAUGCCGAUCCCAAGCCCGGAUAAAAGUGGAGGGGGCGG,0.063
20,ACCACUGCCAAUGCCGUUCCCAAGCCCGGAUAAAAGUGGAGGGGGCGG,0.0456
21,ACCACUGCCAAUGCCGGUCCCAAACCCGGAUAAAAGUGGAGGGGGCGG,0.0674
22,ACCACUGCCAAUGCCGGUCCCAAGCCCAGAUAAAAGUGGAGGGGGCGG,0.0374

row,Variant,self-cleavage
1,ACCACUGCCAAUGCCGGUCCCAAGCCCGGAUAAAAAUGGAGGGGGCGG,0.0575
2,ACCACUGCCAAUGCCGGUCCCAAGCCCGGAUAAAAUUGGAGGGGGCGG,0.0783
3,ACCACUGCCAAUGCCGGUCCCAAGCCCGGAUAAAAGUGUAGGGGGCGG,0.0688
4,ACCACUGCCAAUGCCGGUCCCAAGCCCGGAUAAAAGUGGAAGGGGCGG,0.0488
5,ACCACUGCCAAUGCCGGUCCCAAGCCCGGAUAAAAGUGGACGGGGCGG,0.0702
6,ACCACUGCCAAUGCCGGUCCCAAGCCCGGAUAAAAGUGGAUGGGGCGG,0.0822
7,ACCACUGCCAAUGCCGGUCCCAAGCCCGGAUAAAAGUGGAGAGGGCGG,0.0532
8,ACCACUGCCAAUGCCGGUCCCAAGCCCGGAUAAAAGUGGAGCGGGCGG,0.0693
9,ACCACUGCCAAUGCCGGUCCCAAGCCCGGAUAAAAGUGGAGUGGGCGG,0.0469
10,ACCACUGCCAAUGCCGGUCCCAAGCCCGGAUAAAAGUGGAGGAGGCGG,0.1
11,ACCACUGCCAAUGCCGGUCCCAAGCCCGGAUAAAAGUGGAGGCGGCGG,0.0309
12,ACCACUGCCAAUGCCGGUCCCAAGCCCGGAUAAAAGUGGAGGUGGCGG,0.0462
13,ACCACUGCCAAUGCCGGUCCCAAGCCCGGAUAAAAGUGGAGGGCGCGG,0.035
14,ACCACUGCCAAUGCCGGUCCCAAGCCCGGAUAAAAGUGGAGGGGACGG,0.0666
15,ACCACUGCCAAUGCCGGUCCCAAGCCCGGAUAAAAGUGGAGGGGCCGG,0.0767
16,ACCACUGCCAAUGCCGGUCCCAAGCCCGGAUAAAAGUGGAGGGGGCGC,0.0956
17,ACCACAGCCAAUGCCGGUCCCAAGCCCGGAUAAAAGUGGAGGGGGCGG,0.0688
18,ACCACGGCCAAUGCCGGUCCCAAGCCCGGAUAAAAGUGGAGGGGGCGG,0.0861
19,ACCACUGCCAAAGCCGGUCCCAAGCCCGGAUAAAAGUGGAGGGGGCGG,0.0702
20,ACCACUGCCAACGCCGGUCCCAAGCCCGGAUAAAAGUGGAGGGGGCGG,0.094
21,ACCACUGCCAAUGCCGGACCCAAGCCCGGAUAAAAGUGGAGGGGGCGG,0.0761
22,ACCACUGCCAAUGCCGGCCCCAAGCCCGGAUAAAAGUGGAGGGGGCGG,0.0934

row,Variant,self-cleavage
1,ACCACUGCCAAUGCCGGGCCCAAGCCCGGAUAAAAGUGGAGGGGGCGG,0.0901
2,ACCACUGCCAAUGCCGGUCCCAAGCCCGGAGAAAAGUGGAGGGGGCGG,0.177
3,ACCACUGCCAAUGCCGGUCCCAAGCCCGGAUAAAAGGGGAGGGGGCGG,0.057
4,AGCACUGCCAAUGCCGGUCCCAAGCCCGGAUAAAAGUGGAGGGGGCGG,0.411
5,AGCGCUGCCAAUGCCGGUCCCAAGCCCGGAUAAAAGUGGAGGGGGCGG,0.212
6,AGCACUGCCUAUGCCGGUCCCAAGCCCGGAUAAAAGUGGAGGGGGCGG,0.346
7,AGCACUGCCACUGCCGGUCCCAAGCCCGGAUAAAAGUGGAGGGGGCGG,0.206
8,AGCACUGCCAUUGCCGGUCCCAAGCCCGGAUAAAAGUGGAGGGGGCGG,0.583
9,AGCACUGCCAAUGCCGGUCCCACGCCCGGAUAAAAGUGGAGGGGGCGG,0.0651
10,AGCACUGCCAAUGCCGGUCCCAGGCCCGGAUAAAAGUGGAGGGGGCGG,0.0805
11,AGCACUGCCAAUGCCGGUCCCAUGCCCGGAUAAAAGUGGAGGGGGCGG,0.0843
12,AGCACUGCCAAUGCCGGUCCCAAGCCCGGCUAAAAGUGGAGGGGGCGG,0.23
13,AGCACUGCCAAUGCCGGUCCCAAGCCCGGUUAAAAGUGGAGGGGGCGG,0.256
14,AGCACUGCCAAUGCCGGUCCCAAGCCCGGAUAACAGUGGAGGGGGCGG,0.151
15,AGCACUGCCAAUGCCGGUCCCAAGCCCGGAUAAGAGUGGAGGGGGCGG,0.192
16,AGCACUGCCAAUGCCGGUCCCAAGCCCGGAUAAAGGUGGAGGGGGCGG,0.226
17,AGCACUGCCAAUGCCGGUCCCAAGCCCGGAUAAAUGUGGAGGGGGCGG,0.211
18,AGAACUGCCAAUGCCGGUCCCAAGCCCGGAUAAAAGUGGAGGGGGCGG,0.171
19,AGGACUGCCAAUGCCGGUCCCAAGCCCGGAUAAAAGUGGAGGGGGCGG,0.583
20,AGCACUGACAAUGCCGGUCCCAAGCCCGGAUAAAAGUGGAGGGGGCGG,0.153
21,AGCACUGGCAAUGCCGGUCCCAAGCCCGGAUAAAAGUGGAGGGGGCGG,0.0347
22,AGCACUGUCAAUGCCGGUCCCAAGCCCGGAUAAAAGUGGAGGGGGCGG,0.194

row,Variant,self-cleavage
1,AGCACUGCAAAUGCCGGUCCCAAGCCCGGAUAAAAGUGGAGGGGGCGG,0.104
2,AGCACUGCUAAUGCCGGUCCCAAGCCCGGAUAAAAGUGGAGGGGGCGG,0.0996
3,AGCACUGCCAAUGACGGUCCCAAGCCCGGAUAAAAGUGGAGGGGGCGG,0.291
4,AGCACUGCCAAUGCAGGUCCCAAGCCCGGAUAAAAGUGGAGGGGGCGG,0.136
5,AGCACUGCCAAUGCGGGUCCCAAGCCCGGAUAAAAGUGGAGGGGGCGG,0.0529
6,AGCACUGCCAAUGCUGGUCCCAAGCCCGGAUAAAAGUGGAGGGGGCGG,0.503
7,AGCACUGCCAAUGCCGGUGCCAAGCCCGGAUAAAAGUGGAGGGGGCGG,0.121
8,AGCACUGCCAAUGCCGGUUCCAAGCCCGGAUAAAAGUGGAGGGGGCGG,0.155
9,AGCACUGCCAAUGCCGGUCCUAAGCCCGGAUAAAAGUGGAGGGGGCGG,0.0523
10,AGCACUGCCAAUGCCGGUCCCAAGACCGGAUAAAAGUGGAGGGGGCGG,0.127
11,AGCACUGCCAAUGCCGGUCCCAAGGCCGGAUAAAAGUGGAGGGGGCGG,0.0917
12,AGCACUGCCAAUGCCGGUCCCAAGCACGGAUAAAAGUGGAGGGGGCGG,0.134
13,AGCACUGCCAAUGCCGGUCCCAAGCGCGGAUAAAAGUGGAGGGGGCGG,0.035
14,AGCACUGCCAAUGCCGGUCCCAAGCUCGGAUAAAAGUGGAGGGGGCGG,0.08
15,AGCACUGCCAAUGCCGGUCCCAAGCCAGGAUAAAAGUGGAGGGGGCGG,0.0876
16,AGCACUGCCAAUGCCGGUCCCAAGCCCGGAUAAAAGUGGAGGGGGAGG,0.2
17,AGCACUGCCAAUGCCGGUCCCAAGCCCGGAUAAAAGUGGAGGGGGGGG,0.431
18,AGCACUUCCAAUGCCGGUCCCAAGCCCGGAUAAAAGUGGAGGGGGCGG,0.0648
19,AGCACUGCCAAUACCGGUCCCAAGCCCGGAUAAAAGUGGAGGGGGCGG,0.131
20,AGCACUGCCAAUCCCGGUCCCAAGCCCGGAUAAAAGUGGAGGGGGCGG,0.0608

# Source: the RNAGym collection of RNA variant scans (doi:10.7554/elife.80360)
